The target of assay [1] is T1, rHuman ErbB2/Fc Chimera, CF (human, UniProt P04626 23-652).
T1 construct: Bought from R&D Systems; also called human epidermal growth factor 2 receptor; not shown: Fc of the bought chimera
Nature of the assay: ECL Multispot (MSD) assay; antigen spotted on plate, Fab in solution.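 Further: fab bound 1 h at 20 °C, detected by TAG-labelled antibody electrochemiluminescence, signal relative to each well's blank, ratio of 4 or more marks a hit.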

Assay [2] deals with T2, rHuman EGF R/Fc Chimera, CF (human, UniProt P00533 25-645).
T2 construct: Bought from R&D Systems; also called epidermal growth factor receptor; not shown: Fc of the bought chimera
Described as above.

In assay [3] the target is T3, rHuman HGF R/c-MET/Fc Chimera, CF (human, UniProt P08581 25-932).
T3 construct: Bought from R&D Systems; also called HGF R/Fc; hepatocyte growth factor receptor; not shown: Fc of the bought chimera
T3 sequence (P08581 25-932, change not shown): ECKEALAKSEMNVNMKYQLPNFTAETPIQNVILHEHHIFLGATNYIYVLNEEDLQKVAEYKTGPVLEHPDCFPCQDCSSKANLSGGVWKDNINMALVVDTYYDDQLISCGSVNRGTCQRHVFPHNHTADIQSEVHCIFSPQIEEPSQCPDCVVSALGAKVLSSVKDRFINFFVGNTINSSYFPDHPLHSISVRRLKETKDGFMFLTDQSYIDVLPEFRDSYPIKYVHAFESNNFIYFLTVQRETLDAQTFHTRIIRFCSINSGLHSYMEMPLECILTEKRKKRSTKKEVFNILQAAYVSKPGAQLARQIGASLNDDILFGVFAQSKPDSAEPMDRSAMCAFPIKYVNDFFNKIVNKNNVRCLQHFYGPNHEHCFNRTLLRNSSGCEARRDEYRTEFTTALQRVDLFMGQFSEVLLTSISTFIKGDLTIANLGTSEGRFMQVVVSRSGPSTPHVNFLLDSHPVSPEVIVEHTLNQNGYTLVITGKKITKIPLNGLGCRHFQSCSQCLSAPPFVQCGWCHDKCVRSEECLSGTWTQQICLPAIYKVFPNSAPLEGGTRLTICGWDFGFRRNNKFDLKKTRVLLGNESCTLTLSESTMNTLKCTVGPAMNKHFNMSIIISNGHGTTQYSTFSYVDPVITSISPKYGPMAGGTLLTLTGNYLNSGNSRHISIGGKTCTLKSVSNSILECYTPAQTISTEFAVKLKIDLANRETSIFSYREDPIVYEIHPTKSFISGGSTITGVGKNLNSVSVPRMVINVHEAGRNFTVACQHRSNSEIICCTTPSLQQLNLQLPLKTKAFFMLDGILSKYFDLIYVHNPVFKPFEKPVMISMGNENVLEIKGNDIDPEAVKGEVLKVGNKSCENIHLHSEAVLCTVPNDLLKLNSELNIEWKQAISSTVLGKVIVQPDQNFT
The assay is described as above.

The target in assay [4] is T4, rHuman Notch-1/Fc Chimera, CF (human, UniProt P46531 19-526).
T4 construct: Bought from R&D Systems; not shown: Fc of the bought chimera
The assay is described as above.

The target in assay [5] is T5, rHuman CD44/Fc Chimera, CF (human, UniProt P16070 21-220).
T5 construct: Bought from R&D Systems; not shown: Fc of the bought chimera
The description is as above.

The target of assay [6] is T6, rHuman IGF-1 sR, (IGF-1 sR), CF (human, UniProt P08069 31-932).
T6 construct: Bought from R&D Systems; also called insulin-like growth factor-1 soluble receptor
Described as above.

Assay [7] deals with T7, rHuman P-Cadherin/Fc Chimera, CF (human, UniProt P22223 108-654).
T7 construct: Bought from R&D Systems; not shown: Fc of the bought chimera
The assay is described as above.

The target of assay [8] is T8, rHuman Erythropoietin R/Fc Chimera, CF (human, UniProt P19235 25-250).
T8 construct: Bought from R&D Systems; also called EPO R; EPO R/Fc; not shown: Fc of the bought chimera
T8 sequence (looked up): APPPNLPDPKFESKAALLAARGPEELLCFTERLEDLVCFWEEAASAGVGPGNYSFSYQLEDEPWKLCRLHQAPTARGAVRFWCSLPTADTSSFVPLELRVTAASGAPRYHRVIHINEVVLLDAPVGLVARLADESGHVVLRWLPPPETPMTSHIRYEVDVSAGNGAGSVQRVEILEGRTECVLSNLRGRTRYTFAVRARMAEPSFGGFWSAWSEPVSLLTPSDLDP
The description is as above.

The next assay addresses T9, Recombinant Human DLL4 (human, UniProt Q9NR61 27-524).
T9 construct: Bought from R&D Systems; also called delta-like protein 4; rHuman DLL4
Described as above.

Assay [9] concerns the target T10, rHuman ErbB2/Fc Chimera, CF (R&D Systems Cat#1129-ER) (human, UniProt P04626 23-652).
T10 construct: Bought recombinant protein; also called human epidermal growth factor 2 receptor
Nature of the assay: ECL multispot (MSD) binding assay, antigen spotted on plate.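 Further: purified Fab incubated 1 h at 20 °C on antigen spots, detected with TAG-labelled antibody, electrochemiluminescence compared with each well's blank, signal-to-blank ratio ≥4 counted as hit.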

The target in assay [10] is T11, rHuman EGF R/Fc Chimera, CF (R&D Systems Cat#344-ER) (human, UniProt P00533 25-645).
T11 construct: Bought recombinant protein; also called epidermal growth factor receptor
The assay is described as above.

The target of assay [11] is T12, rHuman HGF R/c-MET/Fc Chimera, CF (R&D Systems Cat#358-MT/CF) (human, UniProt P08581 25-932).
T12 construct: Bought recombinant protein; also called HGF R/Fc; hepatocyte growth factor receptor
T12 sequence (P08581 25-932, change not shown): as the sequence (P08581 25-932, change not shown) above
The description is as above.

Assay [12] addresses T13, rHuman Notch-1/Fc Chimera, CF (R&D Systems Cat#3647-TK) (human, UniProt P46531 19-526).
T13 construct: Bought recombinant protein
The description is as above.

Assay [13] deals with T14, rHuman CD44/Fc Chimera, CF (R&D Systems Cat#3660-CD) (human, UniProt P16070 21-220).
T14 construct: Bought recombinant protein
The assay is described as above.

In assay [14] the target is T15, rHuman IGF-1 sR, (IGF-1 sR), CF (R&D Systems Cat#391-GR) (human, UniProt P08069 31-932).
T15 construct: Bought recombinant soluble receptor; also called insulin-like growth factor-1 soluble receptor
Described as above.

Assay [15] addresses T16, rHuman P-Cadherin/Fc Chimera, CF (R&D Systems Cat#861-PC) (human, UniProt P22223 108-654).
T16 construct: Bought recombinant protein
The assay is described as above.

In assay [16] the target is T17, rHuman Erythropoietin R/Fc Chimera, CF (R&D Systems Cat#963-ER) (human, UniProt P19235 25-250).
T17 construct: Bought recombinant protein; also called EPO R; EPO R/Fc
T17 sequence (looked up): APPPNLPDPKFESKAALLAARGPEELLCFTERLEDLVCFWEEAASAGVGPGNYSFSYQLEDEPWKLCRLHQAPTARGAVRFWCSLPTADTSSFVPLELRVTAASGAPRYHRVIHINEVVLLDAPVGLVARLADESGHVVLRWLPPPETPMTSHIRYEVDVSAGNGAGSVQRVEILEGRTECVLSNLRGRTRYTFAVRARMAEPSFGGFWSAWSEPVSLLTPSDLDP
The description is as above.

Assay [17] has as its target T18, Recombinant Human DLL4 (R&D Systems Cat#1506-D4/CF) (human, UniProt Q9NR61 27-524).
T18 construct: Bought recombinant protein; also called delta-like protein 4; rHuman DLL4
The description is as above.

B1: Fab VH1-46_IGHD6-6*01_IGHJ1*01 S102A/S103P/S104F/H111F (APFF) & L6_IGKJ1*01 S28K (Fab, V domains shown)
VH: QVQLVQSGAEVKKPGASVKVSCKASGYTFTSYYMHWVRQAPGQGLEWMGIINPSGGSTSYAQKFQGRVTMTRDTSTSTVYMELSSLRSEDTAVYYCAREEYAPFSAEYFQFWGQGTLVTVSS
VL: EIVLTQSPATLSLSPGERATLSCRASQKVSSYLAWYQQKPGQAPRLLIYDASNRATGIPARFSGSGSGTDFTLTISSLEPEDFAVYYCQQRSNWPPWTFGQGTKVEIKR
notes: Fab made in E. coli; the variable domains were cloned into Plasmid A (CH1, His and Flag tags) and Plasmid C (kappa CL); also called APFF / S28K
For B1, the ECL signal was 270 in assay [1]; 386 in assay [2]; 355 in assay [3]; 395 in assay [4]; 464 in assay [5]; 348 in assay [6]. Further, the ECL signal in assay [7] is 443; in assay [8] it was 477; in the assay with Recombinant Human DLL4, 124000.

B2: Fab VH1-46_IGHD6-6*01_IGHJ1*01 S102A/S103P/S104F/H111F (APFF) & L6_IGKJ1*01 S31F (Fab, V domains shown)
VH: QVQLVQSGAEVKKPGASVKVSCKASGYTFTSYYMHWVRQAPGQGLEWMGIINPSGGSTSYAQKFQGRVTMTRDTSTSTVYMELSSLRSEDTAVYYCAREEYAPFSAEYFQFWGQGTLVTVSS
VL: EIVLTQSPATLSLSPGERATLSCRASQSVSFYLAWYQQKPGQAPRLLIYDASNRATGIPARFSGSGSGTDFTLTISSLEPEDFAVYYCQQRSNWPPWTFGQGTKVEIKR
notes: Tested as Fab (CH1 with His6/Flag tags, kappa CL) made in E. coli; also called APFF / S31F
B2: the ECL signal in assay [9] stood at 295; in assay [10], 342; in assay [11], 280; in assay [12], 349; in [13], 256; in assay [14], 267. Moreover, the results for the ECL signal in [15], in assay [16] and in assay [17] were 369, 599 and 189000, respectively.

B3: Fab VH1-46_IGHD6-6*01_IGHJ1*01 S102A/S103P/S104F/H111F (APFF) & L6_IGKJ1*01 S28L (Fab, V domains shown)
VH: QVQLVQSGAEVKKPGASVKVSCKASGYTFTSYYMHWVRQAPGQGLEWMGIINPSGGSTSYAQKFQGRVTMTRDTSTSTVYMELSSLRSEDTAVYYCAREEYAPFSAEYFQFWGQGTLVTVSS
VL: EIVLTQSPATLSLSPGERATLSCRASQLVSSYLAWYQQKPGQAPRLLIYDASNRATGIPARFSGSGSGTDFTLTISSLEPEDFAVYYCQQRSNWPPWTFGQGTKVEIKR
notes: Fab made in E. coli; the variable domains were cloned into Plasmid A (CH1, His and Flag tags) and Plasmid C (kappa CL); also called APFF / S28L
Consider B3, for which the ECL signal in [1] came out at 222; in assay [2], 378; in assay [3] it was 317; in assay [4], 392; in assay [5], 365; in [6] it was 346. The ECL signal in assay [7] worked out at 418; in [8], 404; with Recombinant Human DLL4, 72300.

B4: Fab VH1-46_IGHD6-6*01_IGHJ1*01 S102A/S103P/S104F/H111F (APFF) & L6_IGKJ1*01 S28P (Fab, V domains shown)
VH: QVQLVQSGAEVKKPGASVKVSCKASGYTFTSYYMHWVRQAPGQGLEWMGIINPSGGSTSYAQKFQGRVTMTRDTSTSTVYMELSSLRSEDTAVYYCAREEYAPFSAEYFQFWGQGTLVTVSS
VL: EIVLTQSPATLSLSPGERATLSCRASQPVSSYLAWYQQKPGQAPRLLIYDASNRATGIPARFSGSGSGTDFTLTISSLEPEDFAVYYCQQRSNWPPWTFGQGTKVEIKR
notes: Fab made in E. coli; the variable domains were cloned into Plasmid A (CH1, His and Flag tags) and Plasmid C (kappa CL); also called APFF / S28P
Regarding B4, the ECL signal in assay [1] turned out to be 427; in assay [2], 370; in [3], 318; in [4] it was 416; in assay [5], 365; in [6], 392. In addition, the ECL signal turned out to be 605 in assay [7], 492 in assay [8] and 178000 with Recombinant Human DLL4.

B5: Fab VH1-46_IGHD6-6*01_IGHJ1*01 S102A/S103P/S104F/H111F (APFF) & L6_IGKJ1*01 S31I (Fab, V domains shown)
VH: QVQLVQSGAEVKKPGASVKVSCKASGYTFTSYYMHWVRQAPGQGLEWMGIINPSGGSTSYAQKFQGRVTMTRDTSTSTVYMELSSLRSEDTAVYYCAREEYAPFSAEYFQFWGQGTLVTVSS
VL: EIVLTQSPATLSLSPGERATLSCRASQSVSIYLAWYQQKPGQAPRLLIYDASNRATGIPARFSGSGSGTDFTLTISSLEPEDFAVYYCQQRSNWPPWTFGQGTKVEIKR
notes: Tested as Fab (CH1 with His6/Flag tags, kappa CL) made in E. coli; also called APFF / S31I
As to B5, the ECL signal in assay [9] amounted to 222; in [10], 363; in assay [11] it was 303; in assay [12] it was 421; in assay [13] it was 506; in [14], 365. The ECL signal stood at 444 in assay [15], 500 in [16] and 174000 in [17].

B6: Fab VH1-46_IGHD6-6*01_IGHJ1*01 S102A/S103P/S104F/H111F (APFF) & L6_IGKJ1*01 S31H (Fab, V domains shown)
VH: QVQLVQSGAEVKKPGASVKVSCKASGYTFTSYYMHWVRQAPGQGLEWMGIINPSGGSTSYAQKFQGRVTMTRDTSTSTVYMELSSLRSEDTAVYYCAREEYAPFSAEYFQFWGQGTLVTVSS
VL: EIVLTQSPATLSLSPGERATLSCRASQSVSHYLAWYQQKPGQAPRLLIYDASNRATGIPARFSGSGSGTDFTLTISSLEPEDFAVYYCQQRSNWPPWTFGQGTKVEIKR
notes: Tested as Fab (CH1 with His6/Flag tags, kappa CL) made in E. coli; also called APFF / S31H
For B6, the ECL signal in assay [9] amounted to 307; in assay [10], 373; in assay [11], 352; in assay [12], 421; in assay [13] it was 426; in [14], 350. The ECL signal in assay [15] was 480; in assay [16], 504; in [17] it was 221000.

B7: Fab VH1-46_IGHD6-6*01_IGHJ1*01 S102A/S103P/S104F/H111F (APFF) & L6_IGKJ1*01 S31D (Fab, V domains shown)
VH: QVQLVQSGAEVKKPGASVKVSCKASGYTFTSYYMHWVRQAPGQGLEWMGIINPSGGSTSYAQKFQGRVTMTRDTSTSTVYMELSSLRSEDTAVYYCAREEYAPFSAEYFQFWGQGTLVTVSS
VL: EIVLTQSPATLSLSPGERATLSCRASQSVSDYLAWYQQKPGQAPRLLIYDASNRATGIPARFSGSGSGTDFTLTISSLEPEDFAVYYCQQRSNWPPWTFGQGTKVEIKR
notes: Tested as Fab (CH1 with His6/Flag tags, kappa CL) made in E. coli; also called APFF / S31D
Turning to B7, the ECL signal is 479 in assay [9]; 438 in [10]; 429 in [11]; 510 in [12]; 471 in [13]; 407 in assay [14]. Moreover, the ECL signal turned out to be 451 in assay [15], 596 in assay [16] and 154000 in [17].

B8: Fab VH1-46_IGHD6-6*01_IGHJ1*01 S102A/S103P/S104F/H111F (APFF) & L6_IGKJ1*01 S28V (Fab, V domains shown)
VH: QVQLVQSGAEVKKPGASVKVSCKASGYTFTSYYMHWVRQAPGQGLEWMGIINPSGGSTSYAQKFQGRVTMTRDTSTSTVYMELSSLRSEDTAVYYCAREEYAPFSAEYFQFWGQGTLVTVSS
VL: EIVLTQSPATLSLSPGERATLSCRASQVVSSYLAWYQQKPGQAPRLLIYDASNRATGIPARFSGSGSGTDFTLTISSLEPEDFAVYYCQQRSNWPPWTFGQGTKVEIKR
notes: Fab made in E. coli; the variable domains were cloned into Plasmid A (CH1, His and Flag tags) and Plasmid C (kappa CL); also called APFF / S28V
As for B8, the ECL signal was 231 in [1]; 327 in assay [2]; 338 in assay [3]; 289 in assay [4]; 380 in [5]; 284 in [6]. Besides, the ECL signal in [7] worked out at 344; in assay [8], 446; with Recombinant Human DLL4, 83100.

Values taken from patent US20120316071A1 (published 2012).
